Data from US20250276077A1 (IMMUNOME, published 2025).

Legend:
[1] = target: T1, mouse EphA2 on mouse tumour cells (mouse, UniProt Q03145 26-977); test: cell-based or functional assay
[2] = target: T2, EphA4 (homologous receptor, screening at Integral Molecular) (human, UniProt P54764 20-986); test: membrane protein screening on cells
T2 construct: whole, on cells

[3] = target: T1, mouse EphA2 on mouse tumour cells; test: flow cytometry, CT26 cells (in vitro)
Method: Surface binding of the antibodies to in vitro grown cell lines was assessed by flow cytometry. Tumor cells were detached from their culture plate using Versene and counted. Cells were staining in BSA-containing buffer with primary antibody for 30 minutes at 4° C. with shaking. Following, cells were washed and stained with secondary PE-labeled antibody for 30 minutes at 4° C. with shaking. Before analysis on an Intellicyt iQue3 scanner, cells were counterstained with DAPI. MedFI values from live, single cells was expressed as fold over isotype control.

[4] = target: T3, EphA4_ECD (aa 23-546), Full ECD, displayed on yeast (human, UniProt P54764 23-546); test: yeast surface display, flow cytometry titration
T3 construct: also called EphA4 full ECD
T3 sequence (P54764 23-546 limits assumed): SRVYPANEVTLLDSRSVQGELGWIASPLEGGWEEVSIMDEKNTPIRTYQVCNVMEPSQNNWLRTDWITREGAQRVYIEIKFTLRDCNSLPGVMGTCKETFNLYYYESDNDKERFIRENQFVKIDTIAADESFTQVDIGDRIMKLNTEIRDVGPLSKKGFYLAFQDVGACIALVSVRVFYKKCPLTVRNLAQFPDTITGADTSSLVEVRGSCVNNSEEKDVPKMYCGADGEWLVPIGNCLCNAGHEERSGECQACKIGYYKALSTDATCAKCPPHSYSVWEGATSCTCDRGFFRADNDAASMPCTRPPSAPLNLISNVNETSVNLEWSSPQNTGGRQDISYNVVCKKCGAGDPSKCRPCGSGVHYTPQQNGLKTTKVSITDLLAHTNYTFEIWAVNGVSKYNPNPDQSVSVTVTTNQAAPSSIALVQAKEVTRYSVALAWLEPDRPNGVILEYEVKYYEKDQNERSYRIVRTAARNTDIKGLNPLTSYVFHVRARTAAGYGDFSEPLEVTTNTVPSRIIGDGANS

FcGR1 = target: T4, FcGR1 (human, UniProt P12314 16-374); test: flow cytometry, 6,000 human membrane proteins expressed on HEK293 cells
T4 construct: whole, on cells
T4 sequence (P12314 16-374): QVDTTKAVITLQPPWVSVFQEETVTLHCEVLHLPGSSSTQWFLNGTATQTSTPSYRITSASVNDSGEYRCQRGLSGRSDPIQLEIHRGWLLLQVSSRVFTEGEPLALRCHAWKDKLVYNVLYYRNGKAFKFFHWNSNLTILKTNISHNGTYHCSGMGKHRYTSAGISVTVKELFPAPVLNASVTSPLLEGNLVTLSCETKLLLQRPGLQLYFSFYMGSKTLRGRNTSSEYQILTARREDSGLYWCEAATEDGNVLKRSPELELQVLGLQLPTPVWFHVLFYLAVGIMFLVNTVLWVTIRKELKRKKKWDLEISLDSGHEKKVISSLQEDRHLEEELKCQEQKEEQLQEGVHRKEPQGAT

T1 sequence (Q03145 26-977): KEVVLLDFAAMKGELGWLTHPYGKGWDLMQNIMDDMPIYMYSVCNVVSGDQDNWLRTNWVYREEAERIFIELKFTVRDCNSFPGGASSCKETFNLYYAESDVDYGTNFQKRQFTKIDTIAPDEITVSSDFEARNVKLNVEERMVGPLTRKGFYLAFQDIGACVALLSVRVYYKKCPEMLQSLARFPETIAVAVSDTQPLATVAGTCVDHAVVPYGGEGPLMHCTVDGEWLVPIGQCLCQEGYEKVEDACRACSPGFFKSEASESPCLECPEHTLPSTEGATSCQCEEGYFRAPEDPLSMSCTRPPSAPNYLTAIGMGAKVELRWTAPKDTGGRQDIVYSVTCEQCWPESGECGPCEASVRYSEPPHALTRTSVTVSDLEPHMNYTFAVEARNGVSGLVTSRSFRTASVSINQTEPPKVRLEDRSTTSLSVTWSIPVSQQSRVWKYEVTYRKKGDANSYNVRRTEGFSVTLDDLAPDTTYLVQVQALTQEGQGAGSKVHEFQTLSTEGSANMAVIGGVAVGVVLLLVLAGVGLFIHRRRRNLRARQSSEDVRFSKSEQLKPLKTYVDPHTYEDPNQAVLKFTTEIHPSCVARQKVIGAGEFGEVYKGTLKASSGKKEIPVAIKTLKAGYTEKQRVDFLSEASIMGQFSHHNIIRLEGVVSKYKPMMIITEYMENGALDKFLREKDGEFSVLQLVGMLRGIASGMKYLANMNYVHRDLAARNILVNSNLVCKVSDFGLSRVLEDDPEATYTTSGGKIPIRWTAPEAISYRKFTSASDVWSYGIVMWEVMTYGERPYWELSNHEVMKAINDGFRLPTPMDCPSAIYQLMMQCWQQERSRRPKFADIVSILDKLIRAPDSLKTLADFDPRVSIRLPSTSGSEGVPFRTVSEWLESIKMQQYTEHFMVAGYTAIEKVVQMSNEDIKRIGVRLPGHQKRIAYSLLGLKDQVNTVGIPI
T2 sequence (P54764 20-986): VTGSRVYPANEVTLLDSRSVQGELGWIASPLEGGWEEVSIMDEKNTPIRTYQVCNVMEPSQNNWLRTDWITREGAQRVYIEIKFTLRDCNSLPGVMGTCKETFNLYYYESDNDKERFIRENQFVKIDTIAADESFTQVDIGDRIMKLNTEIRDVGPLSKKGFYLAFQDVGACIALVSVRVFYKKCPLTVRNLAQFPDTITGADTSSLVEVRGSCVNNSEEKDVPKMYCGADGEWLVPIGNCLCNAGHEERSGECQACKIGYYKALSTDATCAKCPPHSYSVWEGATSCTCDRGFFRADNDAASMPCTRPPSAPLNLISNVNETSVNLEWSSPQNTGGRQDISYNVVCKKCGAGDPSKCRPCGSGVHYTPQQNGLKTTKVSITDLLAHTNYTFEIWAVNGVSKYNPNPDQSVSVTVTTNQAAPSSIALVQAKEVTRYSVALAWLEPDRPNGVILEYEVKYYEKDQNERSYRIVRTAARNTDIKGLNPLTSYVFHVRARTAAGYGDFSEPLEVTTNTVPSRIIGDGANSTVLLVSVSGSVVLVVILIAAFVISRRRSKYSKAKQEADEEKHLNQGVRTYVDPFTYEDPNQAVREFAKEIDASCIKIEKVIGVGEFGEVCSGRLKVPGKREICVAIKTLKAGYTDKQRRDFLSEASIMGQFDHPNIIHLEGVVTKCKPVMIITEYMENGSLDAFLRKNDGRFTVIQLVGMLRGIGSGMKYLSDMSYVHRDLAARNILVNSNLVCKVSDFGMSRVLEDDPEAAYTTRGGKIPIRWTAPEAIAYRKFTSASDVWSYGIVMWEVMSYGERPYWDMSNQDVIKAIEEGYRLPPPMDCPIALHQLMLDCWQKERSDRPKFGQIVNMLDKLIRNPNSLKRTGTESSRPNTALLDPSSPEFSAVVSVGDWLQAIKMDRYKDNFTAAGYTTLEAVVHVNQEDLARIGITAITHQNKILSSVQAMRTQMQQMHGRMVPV

ADCC EC50 (nM), EMT6 cells [1]: > 100 nM
binding result [2]: no binding
fold (MedFI over isotype control) [3]: 16 fold
binding result [4]: no binding (tested: about 300 nM)
binding result (FcGR1): binds
B1: AB-008873 (antibody)
heavy: QVQLQQWGAGLLKPSETLSLTCAVYGGSFSDYYWSWIRQPPGKGLEWIGEVNHRGSINYNNYNPSLKSRVTISVDPSKNQFSLKLTSVTAADTAVYYCAKPLRPHCTNGVCYSGDAFDIWGQGTMVTVASAKTTAPSVYPLAPVCGDTTGSSVTLGCLVKGYFPEPVTLTWNSGSLSSGVHTFPAVLQSDLYTLSSSVTVTSSTWPSQSITCNVAHPASSTKVDKKIEPRGPTIKPCPPCKCPAPNLLGGPSVFIFPPKIKDVLMISLSPIVTCVVVDVSEDDPDVQISWFVNNVEVHTAQTQTHREDYNSTLRVVSALPIQHQDWMSGKEFKCKVNNKDLPAPIERTISKPKGSVRAPQVYVLPPPEEEMTKKQVTLTCMVTDFMPEDIYVEWTNNGKTELNYKNTEPVLDSDGSYFMYSKLRVEKKNWVERNSYSCSVVHEGLHNHHTTKSFSRTPG
light: SYVLTQPPSVSVAPGQTARITCGGNNIGSKNVHWYQQKPGQAPVLVVYDDSDRPSGIPEQFSGSNSGNTATLTISRVEAGDEADYYCQVWDSSSDHLVFGGGTKLTVLGQPKSSPSVTLFPPSSEELETNKATLVCTITDFYPGVVTVDWKVDGTPVTQGMETTQPSKQSNNKYMASSYLTLTARAWERHSSYSCQVTHEGHTVEKSLSRADCS
